Test results taken from US20200078399A1 (LEGEND BIOTECH USA, published 2020).

T1: CD38 on K562.CD38.Luc cells (UniProt P28907 1-300, limits assumed)
T1 sequence (looked up): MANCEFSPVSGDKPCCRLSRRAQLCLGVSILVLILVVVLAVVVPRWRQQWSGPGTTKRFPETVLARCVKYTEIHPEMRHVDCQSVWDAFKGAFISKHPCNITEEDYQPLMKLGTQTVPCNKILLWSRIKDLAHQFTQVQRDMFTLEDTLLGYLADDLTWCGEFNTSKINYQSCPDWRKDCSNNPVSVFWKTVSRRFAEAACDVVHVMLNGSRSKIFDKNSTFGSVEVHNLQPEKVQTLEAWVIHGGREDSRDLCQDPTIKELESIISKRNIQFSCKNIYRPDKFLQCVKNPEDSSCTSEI

T2: human BCMA (B cell mature antigen, CD269, TNFRSF17) on cells (human, UniProt Q02223 1-184)
T2 sequence: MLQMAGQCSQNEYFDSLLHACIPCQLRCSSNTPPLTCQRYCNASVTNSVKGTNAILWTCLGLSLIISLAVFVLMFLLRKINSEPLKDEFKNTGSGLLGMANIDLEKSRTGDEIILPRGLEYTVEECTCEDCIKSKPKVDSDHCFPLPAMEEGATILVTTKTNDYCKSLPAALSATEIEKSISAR


Experiments:
Experiment in all cases: cell-based or functional assay
[1] = target: human BCMA (B cell mature antigen, CD269, TNFRSF17) on cells (human) (UniProt Q02223)
[2] = target: T1, CD38 on K562.CD38.Luc cells
[3] = target: T2, human BCMA (B cell mature antigen, …)

Molecule	percentage of remaining viable RPMI8226.Luc cells (remaining luciferase activity), CAR-T from patient A, E/T 5:1, 20 hours [1] [%]	percentage of remaining viable RPMI8226.Luc cells (remaining luciferase activity), CAR-T from patient A, E/T 20:1, 20 hours [1] [%]	percentage of remaining viable RPMI8226.Luc cells (remaining luciferase activity), CAR-T from patient B, E/T 5:1, 20 hours [1] [%]	percentage of remaining viable RPMI8226.Luc cells (remaining luciferase activity), CAR-T from patient B, E/T 20:1, 20 hours [1] [%]	percentage of remaining viable RPMI8226.Luc cells (remaining luciferase activity), CAR-T from patient C, E/T 5:1, 20 hours [1] [%]	percentage of remaining viable RPMI8226.Luc cells (remaining luciferase activity), CAR-T from patient C, E/T 20:1, 20 hours [1] [%]	IFN gamma release in co-culture with K562.CD38.Luc (BCMA negative control; UnT 85.65 pg/ml), mean [2] [pg/mL]	IFN gamma release in co-culture with RPMI8226.Luc, mean [3] [pg/mL]	IFN gamma release in co-culture with Raji.Luc, mean [3] [pg/mL]
LCAR-B27S CAR	68.6	3.17	84	9.32	101	10.1			
LCAR-B38M CAR	33.4	3.97	40.9	4.45	30	2.56			
BCAR001 (other) QVKLEESGGGLVQAGRSLRLSCAASEHTFSSHVMGWFRQAPGKERESVAVIGWRDISTSYADSVKGRFTISRDNAKKTLYLQMNSLKPEDTAVYYCAARRIDAADFDSWGQGTQVTVSSGGGGSAVQLVESGGGLVQAGDSLRLTCTASGRAFSTYFMAWFRQAPGKEREFVAGIAWSGGSTAYADSVKGRFTISRDNAKNTVYLQMNSLKSEDTAVYYCASRGIEVEEFGAWGQGTQVTVSSTSTTTPAPRPPTPAPTIASQPLSLRPEACRPAAGGAVHTRGLDFACDIYIWAPLAGTCGVLLLSLVITLYCKRGRKKLLYIFKQPFMRPVQTTQEEDGCSCRFPEEEEGGCELRVKFSRSADAPAYQQGQNQLYNELNLGRREEYDVLDKRRGRDPEMGGKPRRKNPQEGLYNELQKDKMAEAYSEIGMKGERRRGKGHDGLYQGLSTATKDTYDALHMQALPPR							136	1100	796
